Substrate: N[C@@H](CC(=O)O)C(=O)O
Experiment: purified protein
Settings: pH 8.0

Protein	Km	kcat	kcat/Km
(Escherichia coli K-12) (protein) chain 1: MIRTMLQGKLHRVKVTHADLHYEG chain 2: SCAIDQDFLDAAGILENEAIDIWNVTNGKRFSTYAIAAERGSRIISVNGAAAHCASVGDIVIIASFVTMPDEEARTWRPNVAYFEGDNEMKRTAKAIPVQVA	7.9 ± 0.1 mM	1.4 s⁻¹	180 M⁻¹ s⁻¹
(Corynebacterium glutamicum ATCC 13032) (protein) chain 1: MLRTILGSKIHRATVTQADLDYVG chain 2: SVTIDADLVHAAGLIEGEKVAIVDITNGARLETYVIVGDAGTGNICINGAAAHLINPGDLVIIMSYLQATDAEAKAYEPKIVHVDADNRIVALGNDLAEALPGSGLLTSRSI	4.3 ± 0.2 mM	2.8 s⁻¹	650 M⁻¹ s⁻¹
(Thermus thermophilus HB8) (protein) chain 1: MKRVMFHAKIHRATVTQADLHYVG chain 2: SVTVDQDLLDAAGILPFEQVDIYDITNGARLTTYALPGERGSGVIGINGAAAHLVKPGDLVILVAYGVFDEEEARNLKPTVVLVDERNRILEVRKG	8.5 ± 0.1 mM	2.2 s⁻¹	260 M⁻¹ s⁻¹
